Reference: PMC6638966, “The demethylase NMAD-1 regulates DNA replication and repair in the Caenorhabditis elegans germline” (PLoS Genetics, 2019)

Target: T1, GST-tagged TOP-2 (C. elegans, UniProt Q23670 1-1520)
T1 construct: TOP-2, topoisomerase II of C. elegans; also called topoisomerase II; source: E. coli BL21, purified (glutathione sepharose 4B)
Assay: pull-down; 3 μg GST-tagged protein on glutathione sepharose 4B beads with 1 μg HIS-tagged NMAD-1 in TAP wash buffer (50 mM Tris-HCl pH 8.0, 100 mM KCl), 1 h at 4 °C; blot probed with HIS antibody
Settings: both partners purified

T1 sequence (Q23670 whole entry): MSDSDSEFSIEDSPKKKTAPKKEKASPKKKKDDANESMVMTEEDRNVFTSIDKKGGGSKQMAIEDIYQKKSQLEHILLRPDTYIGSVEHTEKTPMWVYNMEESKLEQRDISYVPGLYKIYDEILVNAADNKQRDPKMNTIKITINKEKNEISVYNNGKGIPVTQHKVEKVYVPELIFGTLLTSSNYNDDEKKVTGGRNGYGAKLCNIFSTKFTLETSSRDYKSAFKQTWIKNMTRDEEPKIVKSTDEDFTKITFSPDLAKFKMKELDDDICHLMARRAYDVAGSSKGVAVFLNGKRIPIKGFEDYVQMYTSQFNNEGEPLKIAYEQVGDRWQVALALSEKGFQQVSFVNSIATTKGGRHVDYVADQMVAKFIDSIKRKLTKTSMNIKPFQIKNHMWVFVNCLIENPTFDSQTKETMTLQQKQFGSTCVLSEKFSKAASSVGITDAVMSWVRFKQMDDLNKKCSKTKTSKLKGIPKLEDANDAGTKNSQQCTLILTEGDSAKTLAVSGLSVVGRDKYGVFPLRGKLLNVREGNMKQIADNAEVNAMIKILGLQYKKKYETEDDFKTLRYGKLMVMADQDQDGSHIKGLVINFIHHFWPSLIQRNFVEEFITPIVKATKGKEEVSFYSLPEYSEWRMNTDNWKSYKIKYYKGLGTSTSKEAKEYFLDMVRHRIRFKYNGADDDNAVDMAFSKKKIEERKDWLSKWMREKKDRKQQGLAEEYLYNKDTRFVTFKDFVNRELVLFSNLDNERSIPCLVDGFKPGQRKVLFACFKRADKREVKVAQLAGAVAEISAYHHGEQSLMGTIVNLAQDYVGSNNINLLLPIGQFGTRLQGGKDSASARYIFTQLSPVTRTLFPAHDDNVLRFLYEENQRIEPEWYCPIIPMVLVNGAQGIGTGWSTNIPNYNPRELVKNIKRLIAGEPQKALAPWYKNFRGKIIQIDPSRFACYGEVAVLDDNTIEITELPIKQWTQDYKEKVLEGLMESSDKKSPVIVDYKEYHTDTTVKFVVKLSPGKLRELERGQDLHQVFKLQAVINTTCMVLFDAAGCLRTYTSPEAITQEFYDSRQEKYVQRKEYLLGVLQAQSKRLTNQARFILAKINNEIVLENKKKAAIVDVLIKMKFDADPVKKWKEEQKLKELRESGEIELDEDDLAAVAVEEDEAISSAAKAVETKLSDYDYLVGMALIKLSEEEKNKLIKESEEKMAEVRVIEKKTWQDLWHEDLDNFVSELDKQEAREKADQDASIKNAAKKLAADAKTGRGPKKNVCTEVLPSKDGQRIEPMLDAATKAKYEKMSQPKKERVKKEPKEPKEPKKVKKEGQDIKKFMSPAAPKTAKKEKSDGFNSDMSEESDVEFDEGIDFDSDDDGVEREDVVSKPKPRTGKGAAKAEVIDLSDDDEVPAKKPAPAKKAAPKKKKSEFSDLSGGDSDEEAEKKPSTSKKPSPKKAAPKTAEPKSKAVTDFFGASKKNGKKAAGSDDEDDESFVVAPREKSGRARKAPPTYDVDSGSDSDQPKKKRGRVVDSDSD

binding result: binds
B1: recombinant His-tagged NMAD-1 (enzyme, C. elegans, UniProt Q8MNT9 1-291, looked up)
chain: MGSAEQACGCKGARFCALCETTERVKKLRVVEDKHVNYKVFIYDHIRQIAIPTTNLNSQSSLEDIIDESTSCQSVSTDGSIEIDGLTLIHNFLSESEESKILNMIDTVEWAQSQSGRRKQDYGPKVNFKHKKVKTDTFVGMPEYADMLLNKMSEYDVKKLGNYQPFEMCNLEYEEVKKSAIEMHQDDMWIWGNRLISINLINGSVMTLSNDNKSFLCYVHMPHRSLLCMADECRYDWKHGVLAHHIRGRRIALTMREAAKDFAEGGELYEKYGAELIRLGNIRVPLSKTSV
notes: NMAD-1 (F09F7.7) of C. elegans; also called HIS:NMAD-1; source: E. coli BL21, purified (Ni-NTA)
